Here are results for three molecules from patent US20210299158A1 (NORTHWESTERN UNIVERSITY, published 2021).

Ends that are not written are not given here. * marks the point of attachment. Biotin = O=C1N[C@H]2[C@H](CS[C@H]2CCCCC(=O)*)N1

Assay [1] addresses T1, Collagen type III (human) (human, UniProt P02461 154-1221).
T1 construct: Coated on plates; also called collagen III; COL III
T1 sequence (looked up): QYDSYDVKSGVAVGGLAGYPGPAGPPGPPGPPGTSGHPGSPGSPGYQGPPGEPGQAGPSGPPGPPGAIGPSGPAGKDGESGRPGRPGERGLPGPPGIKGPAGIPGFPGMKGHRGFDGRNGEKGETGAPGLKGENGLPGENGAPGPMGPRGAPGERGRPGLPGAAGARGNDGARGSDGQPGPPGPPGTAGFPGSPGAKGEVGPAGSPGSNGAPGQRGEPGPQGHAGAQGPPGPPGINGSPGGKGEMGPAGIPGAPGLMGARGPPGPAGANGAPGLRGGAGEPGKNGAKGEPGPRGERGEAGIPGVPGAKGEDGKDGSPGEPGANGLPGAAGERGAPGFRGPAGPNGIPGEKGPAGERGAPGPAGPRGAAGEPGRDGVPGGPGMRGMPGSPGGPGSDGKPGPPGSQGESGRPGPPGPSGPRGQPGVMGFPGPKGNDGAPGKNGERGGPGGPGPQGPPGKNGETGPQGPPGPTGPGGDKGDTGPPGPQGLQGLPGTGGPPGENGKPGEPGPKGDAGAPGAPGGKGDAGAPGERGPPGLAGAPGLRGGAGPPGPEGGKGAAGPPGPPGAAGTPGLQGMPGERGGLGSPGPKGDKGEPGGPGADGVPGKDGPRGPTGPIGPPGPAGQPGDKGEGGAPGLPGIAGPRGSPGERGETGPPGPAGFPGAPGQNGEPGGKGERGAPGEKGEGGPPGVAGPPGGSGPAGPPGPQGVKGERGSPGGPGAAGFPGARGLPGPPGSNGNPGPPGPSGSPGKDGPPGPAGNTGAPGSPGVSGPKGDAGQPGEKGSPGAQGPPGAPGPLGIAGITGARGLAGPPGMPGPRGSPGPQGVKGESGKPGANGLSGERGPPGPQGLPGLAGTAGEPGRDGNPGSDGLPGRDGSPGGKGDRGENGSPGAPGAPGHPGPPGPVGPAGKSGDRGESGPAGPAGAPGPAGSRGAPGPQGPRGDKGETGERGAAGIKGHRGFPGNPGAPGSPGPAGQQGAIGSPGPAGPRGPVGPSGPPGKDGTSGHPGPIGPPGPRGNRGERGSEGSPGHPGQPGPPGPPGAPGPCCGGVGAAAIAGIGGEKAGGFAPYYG
Put plainly: plate binding, biotinylated peptide on coated protein, streptavidin-594 fluorescence. On the procedure: (§1) Peptide and ECM Binding Specificity. Collagens I, II, III, and IV, fibronectin, laminin, and Matrigel were coated onto 96-well black plates at 10 μg/cm². Biotinylated CBP or CBPi were added to coated plates at 0, 1, 10, 100, and 1000 μM overnight at 4° C., after which the plates were washed three times with PBS. Fluorescent streptavidin-594 (4 μg/mL) was added to each well and incubated at room temperature for 2 h, then thoroughly washed with PBS. The plates were read with a fluorescence microplate reader for fluorescence intensity (Ex 591 nm, Em 614 nm). All data were normalized to the background fluorescence intensity of Streptavidin-594 alone directed at each coated protein.
(§2) CBP Selectively Binds to ECM with High Specificity to Collagen IV. […] Bound peptides were subsequently probed with fluorescently labeled streptavidin. CBP, but not CBPi, bound specifically to collagen IV coated surfaces with high relative affinity, and to collagen I coated surfaces to a much lesser extent. […] Neither CBP nor CBPi binds to collagen II, collagen III, or fibronectin.

Another assay concerns the target T2, Collagen type I (rat) (rat, UniProt P02454 152-1207; P02466 86-1125).
T2 construct: Coated on plates at 10 ug/cm^2; the chains come from general knowledge; also called collagen I; COL I
The assay is described as above. The procedure: as §1, §2

Assay [2] addresses T3, Collagen type IV (mouse) (mouse, UniProt P02463 28-1669; P08122 26-1707).
T3 construct: Coated on plates at 10 ug/cm^2; the chains come from general knowledge; also called collagen IV; COL IV
Described as above. On the procedure:
as §1, §2

In assay [3] the target is T4, Fibronectin from human plasma (human, UniProt P02751-8 32-2296, limits assumed).
T4 construct: Coated on plates; also called FN
The description is as above. On the procedure: as §1, §2

For assay [4], the target named is Collagen IV (surface coated, Example 2). The experiment in a line: Cy5 fluorescence after 24 hour incubation on surface coated collagen IV; conjugate at 30 mg/ml; reference is the scrambled CBPi-Hep(Cy5) conjugate.
In assay [5] the target is T3, Collagen type IV (mouse). Put plainly: plate binding, biotinylated CBP at 1000 µM on coated collagen IV, streptavidin-594 fluorescence normalised to background. On the procedure: as §1, §2
Assay [6] has as its target T3, Collagen type IV (mouse). The experiment in a line: plate binding, biotinylated CBP at 100 µM on coated collagen IV, streptavidin-594 fluorescence normalised to background. On the procedure: as §1, §2

T3 sequence (P02463 28-1669, chain 1 of 2): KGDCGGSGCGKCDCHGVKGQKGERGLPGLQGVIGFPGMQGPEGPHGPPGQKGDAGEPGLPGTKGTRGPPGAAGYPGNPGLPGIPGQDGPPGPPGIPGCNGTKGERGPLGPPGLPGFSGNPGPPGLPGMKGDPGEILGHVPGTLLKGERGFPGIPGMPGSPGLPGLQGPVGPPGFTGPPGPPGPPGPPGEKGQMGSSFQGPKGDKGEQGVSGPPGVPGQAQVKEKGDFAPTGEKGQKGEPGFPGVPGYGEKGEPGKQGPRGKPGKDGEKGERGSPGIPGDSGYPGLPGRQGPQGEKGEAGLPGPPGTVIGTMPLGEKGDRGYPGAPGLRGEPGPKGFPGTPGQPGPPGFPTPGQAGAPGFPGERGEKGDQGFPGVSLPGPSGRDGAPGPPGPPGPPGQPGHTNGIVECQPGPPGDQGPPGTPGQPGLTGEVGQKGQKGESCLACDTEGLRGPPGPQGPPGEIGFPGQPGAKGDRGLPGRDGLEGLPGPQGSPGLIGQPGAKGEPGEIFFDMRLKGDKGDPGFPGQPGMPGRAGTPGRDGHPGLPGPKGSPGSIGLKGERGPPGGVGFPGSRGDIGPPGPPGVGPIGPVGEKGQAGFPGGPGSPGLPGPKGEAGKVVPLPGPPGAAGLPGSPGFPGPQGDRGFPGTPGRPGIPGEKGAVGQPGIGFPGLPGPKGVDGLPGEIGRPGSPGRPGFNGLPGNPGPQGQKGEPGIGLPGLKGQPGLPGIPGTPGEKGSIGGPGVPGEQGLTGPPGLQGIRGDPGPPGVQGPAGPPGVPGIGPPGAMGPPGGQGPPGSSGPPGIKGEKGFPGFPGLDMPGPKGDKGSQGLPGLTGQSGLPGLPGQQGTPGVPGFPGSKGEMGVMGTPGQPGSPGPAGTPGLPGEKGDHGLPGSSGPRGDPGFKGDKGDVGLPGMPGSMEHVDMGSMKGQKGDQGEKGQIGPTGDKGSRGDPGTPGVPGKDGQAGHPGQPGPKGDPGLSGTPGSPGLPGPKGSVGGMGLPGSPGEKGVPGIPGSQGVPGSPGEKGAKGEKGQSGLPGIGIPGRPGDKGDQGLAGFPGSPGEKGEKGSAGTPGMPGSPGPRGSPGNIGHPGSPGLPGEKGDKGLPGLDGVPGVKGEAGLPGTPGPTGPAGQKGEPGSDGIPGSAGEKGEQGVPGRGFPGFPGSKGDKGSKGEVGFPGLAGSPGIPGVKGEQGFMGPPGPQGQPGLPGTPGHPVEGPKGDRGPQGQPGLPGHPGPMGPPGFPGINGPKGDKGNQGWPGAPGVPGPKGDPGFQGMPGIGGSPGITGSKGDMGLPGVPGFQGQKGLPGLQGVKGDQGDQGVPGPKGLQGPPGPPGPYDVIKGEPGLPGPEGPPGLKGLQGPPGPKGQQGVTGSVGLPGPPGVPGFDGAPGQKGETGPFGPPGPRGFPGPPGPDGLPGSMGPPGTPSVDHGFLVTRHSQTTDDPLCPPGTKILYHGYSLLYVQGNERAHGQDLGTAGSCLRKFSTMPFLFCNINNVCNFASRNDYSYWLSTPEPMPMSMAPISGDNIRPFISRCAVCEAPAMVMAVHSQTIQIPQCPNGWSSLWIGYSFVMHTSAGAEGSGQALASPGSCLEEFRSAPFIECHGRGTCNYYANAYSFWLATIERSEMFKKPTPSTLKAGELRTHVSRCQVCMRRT
T3 sequence (P08122 26-1707, chain 2 of 2): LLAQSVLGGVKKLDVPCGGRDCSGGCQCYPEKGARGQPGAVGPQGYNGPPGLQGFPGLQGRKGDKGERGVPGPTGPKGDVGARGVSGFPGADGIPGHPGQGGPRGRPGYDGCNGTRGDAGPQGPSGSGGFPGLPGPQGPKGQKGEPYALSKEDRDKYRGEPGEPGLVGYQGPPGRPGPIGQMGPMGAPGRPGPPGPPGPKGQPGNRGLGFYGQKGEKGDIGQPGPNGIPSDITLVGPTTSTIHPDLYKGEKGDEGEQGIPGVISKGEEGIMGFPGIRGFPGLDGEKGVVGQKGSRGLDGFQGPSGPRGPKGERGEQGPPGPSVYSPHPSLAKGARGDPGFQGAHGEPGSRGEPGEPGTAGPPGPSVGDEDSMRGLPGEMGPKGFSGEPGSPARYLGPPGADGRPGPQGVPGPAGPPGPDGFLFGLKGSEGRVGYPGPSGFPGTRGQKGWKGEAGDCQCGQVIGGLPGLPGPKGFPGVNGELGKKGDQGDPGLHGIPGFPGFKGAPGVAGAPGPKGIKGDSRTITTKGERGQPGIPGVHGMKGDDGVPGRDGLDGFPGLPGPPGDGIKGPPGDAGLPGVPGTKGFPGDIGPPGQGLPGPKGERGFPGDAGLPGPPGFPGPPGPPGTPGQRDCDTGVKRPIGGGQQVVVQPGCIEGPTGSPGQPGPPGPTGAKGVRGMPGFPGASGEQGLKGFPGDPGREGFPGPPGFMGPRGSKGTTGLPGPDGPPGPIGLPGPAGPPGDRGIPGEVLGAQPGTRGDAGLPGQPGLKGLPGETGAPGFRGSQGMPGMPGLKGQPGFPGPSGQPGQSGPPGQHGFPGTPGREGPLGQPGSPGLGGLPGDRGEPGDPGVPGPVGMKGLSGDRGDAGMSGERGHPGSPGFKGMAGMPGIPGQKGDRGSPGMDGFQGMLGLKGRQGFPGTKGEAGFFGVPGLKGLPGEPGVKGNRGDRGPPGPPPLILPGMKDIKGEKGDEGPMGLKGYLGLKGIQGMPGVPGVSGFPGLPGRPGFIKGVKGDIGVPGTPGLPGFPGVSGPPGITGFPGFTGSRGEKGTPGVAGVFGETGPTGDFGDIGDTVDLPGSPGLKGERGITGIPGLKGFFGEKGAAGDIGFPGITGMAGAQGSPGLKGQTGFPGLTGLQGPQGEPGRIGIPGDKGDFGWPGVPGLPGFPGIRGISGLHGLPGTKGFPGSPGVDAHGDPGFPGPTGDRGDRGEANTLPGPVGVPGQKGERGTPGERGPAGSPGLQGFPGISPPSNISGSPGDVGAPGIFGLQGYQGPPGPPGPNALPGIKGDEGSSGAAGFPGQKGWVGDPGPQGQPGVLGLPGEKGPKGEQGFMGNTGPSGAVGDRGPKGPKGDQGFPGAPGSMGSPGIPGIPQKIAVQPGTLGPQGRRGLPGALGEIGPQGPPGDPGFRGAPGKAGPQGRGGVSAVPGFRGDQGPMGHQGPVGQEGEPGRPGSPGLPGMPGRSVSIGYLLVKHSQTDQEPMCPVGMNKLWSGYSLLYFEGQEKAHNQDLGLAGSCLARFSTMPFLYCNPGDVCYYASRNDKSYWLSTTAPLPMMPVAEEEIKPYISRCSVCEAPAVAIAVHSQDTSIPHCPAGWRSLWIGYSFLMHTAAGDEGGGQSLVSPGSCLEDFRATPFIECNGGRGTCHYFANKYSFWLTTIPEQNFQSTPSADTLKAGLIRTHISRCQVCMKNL

B1: Biotinylated inactive, nonbinding peptide CBPi (biotin-CDEFQRSTTY) (peptide)
peptide: Biotin-CDEFQRSTTY
notes: also called biotinylated CBPi
For B1, the binding result (in assay [1]; in the assay with Collagen type I (rat); with Collagen type IV (mouse) [2]; in assay [3]) was “no binding (tested: 1000 µM)” in each case.

B2: CBP-Hep(Cy5), improved batch (Heparin(Cy5)-CBP conjugate, 20 C, 10:1 molar ratio CBP:Hep-Cy5) (peptide)
peptide: CQDSETRTFY
modifications: also: peptide conjugated by EDC/NHS to carboxyl groups of Cy5-labelled heparin (28 kD), attachment site not given here
B2 came in with a fold binding against the scrambled CBPi control in assay [4] of 4 fold.

B3: Biotinylated collagen-binding peptide CBP (biotin-CQDSETRTFY) (peptide)
peptide: Biotin-CQDSETRTFY
notes: also called biotinylated CBP
For the molecule B3, the binding result in assay [1] and in assay [3] was “no binding (tested: 1000 µM)” in each case. Further, the “fold increase in surface fluorescence intensity” value amounted to 12.1 fold with Collagen type IV (mouse) [5] and 3.85 fold with Collagen type IV (mouse) [6].
